For the assay, the system named is Healthy Individual's Peripheral Blood Neutrophil. As to the kind of experiment: Inhibition of NET formation in neutrophils pretreated with lactoferrin-derived peptide fragment; DNA concentration in culture supernatant (Picogreen). As to conditions: human neutrophils, pretreatment at room temperature for 30 minutes. The assay is classed as cell-based. The procedure:
Effect of Inhibiting NET Formation Stimulation of Healthy Individual's Peripheral Blood Neutrophil by Pretreatment with Lactoferrin-derived Peptide Fragment
For each round of experiment, 15 ml to 20 ml of peripheral blood was collected from a healthy individual by using an EDTA-containing syringe (with a needle of 18 to 22 G). After collecting the blood, in a 15 ml conical tube charged with 3 ml of Mono-Poly Resolving Medium (Cat No. DSBN100, DS Pharma Biochemical Co., Ltd.), 3.5 ml of the whole blood was gently layered over a lower layer of Mono-Poly Resolving Medium. The resultant 15 ml conical tube was centrifuged with a swing centrifuge at room temperature (15 to 30° C.) at 400×g for 20 minutes, and the conical tube was then gently taken out. An uppermost brown plasma layer and a lymphocyte/monocyte layer thereunder were removed with an aspirator or the like. In addition, a transparent layer under the lymphocyte/monocyte layer was removed as much as possible. […]
A culture supernatant was collected, centrifuged at 200×g for 10 minutes, and the thus obtained supernatant was transferred to a fresh microcentrifuge tube. The amount of DNA was measured by using Picogreen dsDNA assay reagent (P11496 Invitrogen) in accordance with the accompanying protocol.

Consider one molecule from patent publication US20170296629A1, “INHIBITOR OF EXTRACELLULAR TRAP FORMATION IN LEUKOCYTE” (KEIO UNIVERSITY, priority 2014, published 2017).

B1: human lactoferrin: Human lactoferrin protein, Genbank NP_001186078.1 (protein, listed as Homo sapiens)
chain: MRKVRGPPVSCIKRDSPIQCIQAIAENRADAVTLDGGFIYEAGLAPYKLRPVAAEVYGTERQPRTHYYAVAVVKKGGSFQLNELQGLKSCHTGLRRTAGWNVPIGTLRPFLNWTGPPEPIEAAVARFFSASCVPGADKGQFPNLCRLCAGTGENKCAFSSQEPYFSYSGAFKCLRDGAGDVAFIRESTVFEDLSDEAERDEYELLCPDNTRKPVDKFKDCHLARVPSHAVVARSVNGKEDAIWNLLRQAQEKFGKDKSPKFQLFGSPSGQKDLLFKDSAIGFSRVPPRIDSGLYLGSGYFTAIQNLRKSEEEVAARRARVVWCAVGEQELRKCNQWSGLSEGSVTCSSASTTEDCIALVLKGEADAMSLDGGYVYTAGKCGLVPVLAENYKSQQSSDPDPNCVDRPVEGYLAVAVVRRSDTSLTWNSVKGKKSCHTAVDRTAGWNIPMGLLFNQTGSCKFDEYFSQSCAPGSDPRSNLCALCIGDEQGENKCVPNSNERYYGYTGAFRCLAENAGDVAFVKDVTVLQNTDGNNNEAWAKDLKLADFALLCLDGKRKPVTEARSCHLAMAPNHAVVSRMDKVERLKQVLLHQQAKFGRNGSDCPDKFCLFQSETKNLLFNDNTECLARLHGKTTYEKYLGPQYVAGITNLKKCSTSPLLEACEFLRK
Take B1: the “DNA concentration in the culture supernatant (release of the DNA due to the NET)” value was “reduced in a concentration-dependent manner”.
